Data on three molecules can be found in publication PMC4980769 (2016).

Assay [1] addresses AgrA full length (AgrAFL) (Staphylococcus aureus) (UniProt P0A0I7). As to the kind of experiment: BLI; AgrAFL (ligand) immobilised on amine reactive 2nd generation (AR2G) tips; AgrC proteins as analytes at different concentrations; 20 mM HEPES pH 7.6, 200 mM KCl, 2% glycerol; AgrC proteins incubated separately with 5 uM DTT and H2O2; Octet Data Analysis Software v 8.0.
The target is the same in assay [2]. Description: BLI. The following applies: domain or fragment.
Assay [3] has the same target. As to the kind of experiment: BLI; DTT. The following applies: domain or fragment.
For assay [4] the target is unchanged. As to the kind of experiment: BLI; H2O2. The following applies: domain or fragment. (In general: Biolayer interferometry detects binding as a change in optical thickness at a sensor tip.)
For assay [5], the target named is T1, AgrA full length (AgrAFL) (Staphylococcus aureus, UniProt P0A0I7 1-238).
T1 chain: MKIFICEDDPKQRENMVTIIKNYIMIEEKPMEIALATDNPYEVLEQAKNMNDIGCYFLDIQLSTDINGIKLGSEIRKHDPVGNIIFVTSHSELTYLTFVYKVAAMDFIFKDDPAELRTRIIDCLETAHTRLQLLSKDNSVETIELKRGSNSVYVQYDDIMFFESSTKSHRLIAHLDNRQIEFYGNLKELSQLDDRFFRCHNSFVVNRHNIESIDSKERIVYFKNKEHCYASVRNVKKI
As to the kind of experiment: BLI.

Assay [6] deals with T1, AgrA full length (AgrAFL). As to the kind of experiment: BLI; DTT.
In assay [7] the target is T1, AgrA full length (AgrAFL). As to the kind of experiment: BLI; H2O2.

“recombinant AgrC Y223C protein (domain or fragment)” displayed a fold reduction in binding affinity against wild-type AgrC in assay [1] of less than 10 fold.

Regarding recombinant AgrC Y223C protein, the figures for the Kd in assay [2], in assay [3] and in assay [4] were 105 nM, 44.9 nM and 31.4 nM, respectively.

B1: recombinant wild-type AgrC (cytosolic domain) (domain or fragment)
chain: KEMKYKRNQEEIETYYEYTLKIEAINNEMRKFRHDYVNILTPLSEYIREDDMPGLRDYFNKNIVPMKDNLQMNAIKLNGIENLKVREIKGLITAKILRAQEMNIPISIEIPDEVSSINLNMIDLSRSIGIILDNAIEASTEIDDPIIRVAFIESENSVTFIVMNKCADDIPRIHELFQESFSTKGEGRGLGLSTLKEIADNADNVLLDTIIENGFFIQKVEIINN
B1: the Kd (usually the equilibrium constant for the complex coming apart) stood at 93.1 nM in assay [5], 99.8 nM in assay [6] and 4.21 nM in assay [7].
